Laboratory results: patent US20230226096A1 (Orna Therapeutics, Inc., priority 2020, published 2023)

B1: Parechovirus A17 (nucleic acid, listed as Parechovirus sp.)
DNA: CTCTATTAGTGAGATACCACGCTTGTGGACCTTATGCTCACACAGCCATCCTCTAGTAAGTTTGTAAGACGTCTGGTGACGTGTGGGAACTTGTGGGAATCAATATTTTGCTTTAAAGCATCCATTAGCCAGCGGATAAAACACCTGGTAACAGGTGCCTCTGGGGCCAAAAGCCAAGGTTTAACAGACCCTAGTGGATTGGTTTCAAAACCTGAAATATTGTGGAACACACTCAGTACCTACTGATCTGGTAGTAATGCAAGCACTAGTTGTAAGGCCCACGAAGGATGCCCAGAAGGTACCTGTAGGGAACAAGAGACACTATAGATCTGATCTGGGGCTGGCTACCTCTATTTTGGTGAGTCAGTTAAAAAACGTCTAGTGGGCCAAACCCAGGGGGGACCCTGGTTTCCATTTATTTTACAAAGGCACT
B2: Simian Sapelovirus 1 (nucleic acid, listed as Sapelovirus sp.)
DNA: CCAAGGATCTGTTGCATAGGCGTTGTATCCCCTAACCTTTTACCTACCCATCCCAATAGGACTGGTATTTCGGTTTTGATTGAGTAATGGATACTGATTCTATACCTGTTACCCATTCAGGGGAAAAATGGAGTTTCTTTCATGGATCTGACTTGATATGACCAAGAGTCAACACTTTGCGTGTTGGCCGTATGGAATGCTTTAAGGTTTATTCTTTGGATTATGACTTCAGGGTTGGCCGCCCAGGATAAAAGGCAATTGTGGTAAGTGATGTTAGTCATTGGTGGTTGAAACCTGCCTAAGACGTCCTAGGTCTACGCTGTGCGGGCCGAAGTAAGCTTAGGAATAACAGGGAGTATGCCATTTTCTGCTTTCACCCAACACGACCGTACACGAAAGAGCTAGAGGCACTTTGGGGCAAAGGGAAAAGCTTTGCTTAGCCCGAATGTTCATTTGAGTCCTTGACGAATGCGTCCCGTCTGTCCCGACGGTGAGGCGTATGGCGCATGCTCATGGCATTACCCAATGGTGTATCTGTGAGGGGGGGGCTCCTCACACTTAGTCTAGTGCTACCTGACAGGGCCGCGGCTGGTCGTTTGTGTATGGTATAACCAGTAGTAATCCCCCATGGATTGCTTTAACTTCCCCTCCTCCCTTACCAAGACATTCTCTAAG
B3: Rabovirus C (nucleic acid)
DNA: CCGGGTATAACCCGGAGTTTTGGGGCAGGTCCAAGCCCCACATAGGAACATACGATCCACGGATCGTGTGTTCTTTTATGCTTTCTAACCTTACCCTTTGTAACCATTACGCTTTACGCCGCATGGTGTTTGGCGGCACCATGACGTGGACAAGAGGTTACGCCATTACGATATGTACCCTCCCCTTTTGGGGAGAGACCGACCAATTATGGTACAGTATCCAACTGTATTGTGGTCAAGTACTTCTGTTTCCCCGGTGATGCGGGATAGGCTGTACCCACGGCCAAAACCTGCTGATCCGTTACCCGACTCACATCTACGAGGAGGCTAGTAAAAGGCATGAAGTTCAAGAGTATGATCCAACCAGATCCCCACTGGTAAACTAGTGATGAGGGTTCCCGTTCCGAACATGGCAACATGTGGGTTCCCTGCGTTGGCACTAGGCCCCTTCCGAGGGGTGCTCTGAAGATGGATTGTTGATGAAGACCAATTTGTGCATGTGTTTATCCTCCGGCCCTCTGA
modifications: Rabovirus C
B4: Simian Sapelovirus 2 (nucleic acid, listed as Sapelovirus sp.)
DNA: TTTTAACTTGTTATGACATTCAAGGAAAAAATGTCTTTTTCATTATGGGACTGACCTGTTTATGAACATGAGCAGCGGCACTGCTCCACGGGCTATCCGTGTAAGAAATATTGATTATTCTTATGGATCATGATTTCAGGGTTGGCCGCCCAGTCTAAAAGGCAATTGTGGTAAGCTATGTAAGTAGTTGGCTGTTGAAAGGAGCCAAGTACATCCTAGGTCTACGCTGTGCGGGCCGAAGTAAGACTTGGAACAACTCTGAGTAGGCAGTTTTTCTCTTTAGCCCAACACGACCGCATACTGAAGAGCTAGAGGCACTTTGGGGCAAAGGTAAAAGCATTGCTTAGACCGAATGTTCAATGAGACCTTGACGAGTGCTGTCACAGTGTCCCCTGATGGCAGTATGGCGCATGCTCTTGGCATTACCCATATGTGTATCTATAGGGGGGGGGCCCCCTATACTTAGTCTAGTGCTACCTGACAGGGCCGCGGCTGGTCGTCGGTGTGTGGTATAACCAGTAGTAATCCCCCATGGATTGCTTTAACTCCCCCTCCTCCCTCAACAAAACTTTCTCTAAG
B5: Parechovirus A8 (nucleic acid, listed as Parechovirus sp.)
DNA: GGGCCTTATACCCCGACTTGCTGAGTTTCTCTAGGAGAGTCCCTTTCCCAGCCCTGAGGCGGCTGGATAATAAAGGCCTCACATGTAACAAACATCTAAGACAAAATAATTTGCCTTGCACCTGGTCCCCACTAGTTGAAGGCATCTAGCAATAAGATGAGTGGAACAAGGACGCTTAAAGTGCAATGATAGTTATCTTTTCTAACCCACTATTTATAGTGGGGTGGTGGATGGCGCACCATAATTCTAATAGTGAGATACCACGCTTGTGGACCTTATGCTCACACAGCCATCCTCTAGTAAGTTTGTGAGACGTCTGGTGACGTGTGGGAACTTACTGGAAACAATGCTTTGCCGTAAGGCTTTCATTAGCCAGCGGACCACCACCTGGTAACAGGTGCCTCTGGGGCCAAAAGCCAAGGTTTAATAGACCCTAATGGAATGGTTCAAACCTGGAGCATTGTGGAAAGTACTTAGTACCTGCTGATCTGGTAGTAATGCAAACACTAGTTGTACGGCCCACGAAGGATGCCCAGAAGGTACCCGTAGGTAACAAGTGACACTATGGATCTGATCTGGGGCCAACTACCTCTATCTTGGTGAGTTGGTTAAAAAACGTCTAGTGGGCCAAACCCAGGGGGGATCCCTGGTTTCCTTTTATTTTACTTTGTCAAT
B6: Beihai Conger Picornavirus (nucleic acid)
DNA: GGGACAACCCCACAGCTGGTACAACCATTGTGGGTTGGTCTCCACCCTTTTTCAACCGTGGCAACTTCGGTTAAAGTTGCAAATCCCCCCTCTCCCTATTCCACCTCCCTTACTTTCACTCCCCATATATGGTCCCAGATTTTATTCTACCTCTTTATATTTTTATTTAGTACAGTGGTGGTGAATTACTCCCAGCATAAACTTTGCTGGATCAGTGTTCATCAAGCATACTAATTACTAATGTACTGAGCTATACTATTATCTGGCATCTCACCTGGATAACCGGTGTGACCATATTTCCTAGGTTGCCTCCCTATGTATTTTGTAGCACCTGTGCATCTGCACGTTGGGGCGACAAATTGTAGGTTTCCTGGCACGGGTAAGAATTGTGGAAAGCTAGTATGCAGTTAATGCAAGGGCGCGTTTTTCGCTACCCCGACACTGCTAAAGTTTTTGGGAGGGGTCCCTTAAACATTTCTAGTATTGAGTGATAGCTTTGCGGCAGGTCACCACAACCTTACTATAAATAAACCTGTTGAATCTCAC
B7: Porcine Sapelovirus A2 (nucleic acid, listed as Sapelovirus sp.)
DNA: TTGAAATGGGTGTGGGGTACATGCGTATTACGGTACGCATATATTCCACACTCATTTCCCCCCCTCCACCCTTAAGGTGGTTGTATCCCCATACCTTACCCTCCCTTCTAAAACAGATGGACAAATGGATTTGAACTTATGGCAAGTGAATATGGTATGACTTTGGATACACTTTAACGGCAGTAGCGTGGCGAGCTATGGAAAAATCGCAATTGTCGATAGCCATGTTAGTGACGCGCTTCGGCGTGCTCCTTTGGTGATTCGGCGACTGGTTACAGGAGAGTAGGCAGTGAGCTATGGGCAAACCTCTACAGTATTACTTAGAGGGAATGTGCAATTGAGACTTGACGAGCGTCTCTTAGAGATGTGGCGCATGCTCTTGGCATTACCATAGTGAGCTTCCAGGTTGGGAAACCTGGACTGGGCCTATACTACCTGATAGGGTCGCGGCTGGCCGCCTGTAACTAGTATAGTCAGTTGAAACCCCCC
B8: Oscivirus (nucleic acid, listed as Oscivirus sp.)
DNA: CCTCGGTCCCTCTTTCCGTCGCCGCCCACGACGTTAAATGCGGTGTTGTGGTGCTTAGGTGCCACACCACTGCTATTTGGGTCCCCCTTTCCCCTATATATGTTTGTTTGTTTATTTCAATTTCTTGAGGATTGGCACCTCCTTATGCCAAATCTAAATCGTGGAGGATCCCAGGCTTTCTGGTCTTTAACAGAACTCCACGTCCAGGTCATAGAAACTGGTTGGTAGGCTGCCTGAGTAGTCCATTTGCTAGTAGTCCCTTGTGAACAGGGTGGCTCCCGTTTACTGCTGGTATTCCCGGTGTAGGTCGCCATGGTGGTAACACCATCCTGCATTGTGTGTGAACCAGTACCGCAAGGATAGCAAGGTATGAACACTTGTGGACGAAATGGTAAGTGATCAATTCACTTTCATGGCCGGAAGGTCACGTGGCAATCATGCCACCCAGGTACCCTCCTCTGGGAGGATCTGAGGGTGGGCTAAGCAGACCCTGCCATGTGGCTGAACTTTTCCCTTATTGTTTTACTTTGTAACATTTATAGTTGTGTTAGTGATTTGTGTGTTGTGCCCTTGTGAGCTATATCCAGTATAAGTTCGCAGCTAGAAGTTAATCCTTCGACATCGGCTGTATTGGAA
B9: Potamipivirus A (nucleic acid)
DNA: CACATGGAAAGCTTTTCGCTTCCATGTTTACGCACACACTCTCTTTGACACCCTGTTGTATGGTGTTAAACTACAACATTTGTCTGTCTATAATCGTTTATTTTGTTTACCCTATATGTACCCAAGTATTTGATTGCTTGACTCACATAAGCATCGGTAACCCATACTGTTTTATGAGCTACTACCTCTGCTGTCTACATACATTTTATATGAATGGTTTGAGCTCTGCCTCAGGATCAAACATGGTAACATGTTCCTTTGGTCAGTTAGAATCTTATTGTATAATCTAAGGTGTCTATTAGTACGTAGAAAGTTGTAACACATATGGGGCCTGATAGCCGCTATCTCTGATGGATGTAAGGTAACCTTCTTTAGGTCTGATACATTCTGCACAGGATCCAATTTTCGGTGCCCTGTACGAGTGCACTCTTATGCACGAGGACGAGATATGCTACAACCCACTGCAAATTTAAACCCAAACTTTAACA
modifications: Potamipivirus A
B10: Potamipivirus B (nucleic acid)
DNA: TTTCAACGTCGTGGCTGACGTTAAAAAGCCACAATTCCACTTACCTTTTACCTTTTATGTTTAATGTTTGTTAGTTTTGTGATCTTTAACAAATAGATCTAAATAATTTGTTGGTAACCAATCTCGGATGTTTCGGCTGCATTGTAGTTTATTTATTTCATTTTAGTTGTAGGTGGCCACTACGTCCTGGAATCATACATGGTAACATGTACCTCGGCGGTTATCCACTATTACGCTAATCTAAGAATATTTAAATGAAAATGTAAGTGTTACGGCTGACTTTGGGCCTGATAGTTAAATGCTCGCACTGACAGATAGTACCCTCCTTTAGGATCGATTCTGTTACATGGGATCCATTTTGGTGCCCCACTGATTCAACCTCTTTGTTGAAAAAGAGTTAGCATACTACAAATTTTCCAAACAAAAACCCTTTTTAATGACTACAACTTATGATTTTATGAATTTTACTGCTCTTGAAAAAGATATTTTGACATTGATCGCTGTACTGTTTCAGACATTCATTGCATCCATTTTTGTTGGCTACTCCTCACAAACTCAAAACTTTTCCACACGAGAAACCTTGTTTATTGAATTTTGCCTTTATATTTTGGAACTTGTTGTTGGATTTATTGTTTGCTTAATTATTGACCTCACACCTGTTTTAAACACTACAAT
modifications: Potamipivirus B

The molecules below were run on HEK293 cells. Conditions: luminescence from secreted Gluc in supernatant 24 hours after transfection of HEK293 cells; circular RNA encoding Gluc with the named IRES (UTR truncated to 675 nt).
Assay type: cell-based, human

Molecule	Expression
B1	1.20E+06
B2	6.55E+07
B3	2.49E+06
B4	4.24E+07
B5	1.61E+07
B6	1.15E+06
B7	4.34E+06
B8	4.55E+07
B9	8.43E+05
B10	7.20E+05
